Reference: IntAct's records for PubMed 12458226

Tests used:
grip2_rat Grip2 = grip2_rat Grip2 (UniProt Q9WTW1)
grip1_mouse Grip1 = grip1_mouse Grip1 (UniProt Q925T6)
Sequence of grip1_mouse Grip1 (Q925T6 whole entry): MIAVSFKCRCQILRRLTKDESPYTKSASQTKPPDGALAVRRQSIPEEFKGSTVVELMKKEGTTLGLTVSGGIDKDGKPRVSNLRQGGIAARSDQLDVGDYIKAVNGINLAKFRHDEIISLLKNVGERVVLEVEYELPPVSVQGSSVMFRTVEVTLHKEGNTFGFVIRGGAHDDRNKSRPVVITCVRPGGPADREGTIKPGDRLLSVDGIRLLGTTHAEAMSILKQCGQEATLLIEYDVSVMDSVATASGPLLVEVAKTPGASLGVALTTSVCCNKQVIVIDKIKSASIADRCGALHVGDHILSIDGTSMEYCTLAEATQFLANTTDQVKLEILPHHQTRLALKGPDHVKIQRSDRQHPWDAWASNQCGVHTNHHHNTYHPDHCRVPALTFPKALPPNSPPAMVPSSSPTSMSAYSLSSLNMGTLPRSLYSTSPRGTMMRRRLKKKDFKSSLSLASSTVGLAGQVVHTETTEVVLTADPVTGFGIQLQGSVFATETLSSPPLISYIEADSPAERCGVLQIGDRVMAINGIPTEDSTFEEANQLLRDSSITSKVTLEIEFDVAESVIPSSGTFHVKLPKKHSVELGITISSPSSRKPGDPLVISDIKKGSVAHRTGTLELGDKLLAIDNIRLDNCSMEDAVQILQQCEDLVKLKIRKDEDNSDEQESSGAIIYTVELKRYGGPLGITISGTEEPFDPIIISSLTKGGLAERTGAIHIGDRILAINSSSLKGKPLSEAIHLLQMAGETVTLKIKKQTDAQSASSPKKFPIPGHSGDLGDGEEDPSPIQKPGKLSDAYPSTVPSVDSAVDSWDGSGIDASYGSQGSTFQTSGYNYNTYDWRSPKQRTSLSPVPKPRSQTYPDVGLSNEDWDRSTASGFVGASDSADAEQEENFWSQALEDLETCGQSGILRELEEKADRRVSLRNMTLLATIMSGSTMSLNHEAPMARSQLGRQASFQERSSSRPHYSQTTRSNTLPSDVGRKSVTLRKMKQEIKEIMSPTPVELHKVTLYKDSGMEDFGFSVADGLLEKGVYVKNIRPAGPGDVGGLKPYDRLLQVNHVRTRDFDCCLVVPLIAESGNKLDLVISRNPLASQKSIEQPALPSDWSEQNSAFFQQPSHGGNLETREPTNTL

Sequence of grip2_rat Grip2 (Q9WTW1 whole entry): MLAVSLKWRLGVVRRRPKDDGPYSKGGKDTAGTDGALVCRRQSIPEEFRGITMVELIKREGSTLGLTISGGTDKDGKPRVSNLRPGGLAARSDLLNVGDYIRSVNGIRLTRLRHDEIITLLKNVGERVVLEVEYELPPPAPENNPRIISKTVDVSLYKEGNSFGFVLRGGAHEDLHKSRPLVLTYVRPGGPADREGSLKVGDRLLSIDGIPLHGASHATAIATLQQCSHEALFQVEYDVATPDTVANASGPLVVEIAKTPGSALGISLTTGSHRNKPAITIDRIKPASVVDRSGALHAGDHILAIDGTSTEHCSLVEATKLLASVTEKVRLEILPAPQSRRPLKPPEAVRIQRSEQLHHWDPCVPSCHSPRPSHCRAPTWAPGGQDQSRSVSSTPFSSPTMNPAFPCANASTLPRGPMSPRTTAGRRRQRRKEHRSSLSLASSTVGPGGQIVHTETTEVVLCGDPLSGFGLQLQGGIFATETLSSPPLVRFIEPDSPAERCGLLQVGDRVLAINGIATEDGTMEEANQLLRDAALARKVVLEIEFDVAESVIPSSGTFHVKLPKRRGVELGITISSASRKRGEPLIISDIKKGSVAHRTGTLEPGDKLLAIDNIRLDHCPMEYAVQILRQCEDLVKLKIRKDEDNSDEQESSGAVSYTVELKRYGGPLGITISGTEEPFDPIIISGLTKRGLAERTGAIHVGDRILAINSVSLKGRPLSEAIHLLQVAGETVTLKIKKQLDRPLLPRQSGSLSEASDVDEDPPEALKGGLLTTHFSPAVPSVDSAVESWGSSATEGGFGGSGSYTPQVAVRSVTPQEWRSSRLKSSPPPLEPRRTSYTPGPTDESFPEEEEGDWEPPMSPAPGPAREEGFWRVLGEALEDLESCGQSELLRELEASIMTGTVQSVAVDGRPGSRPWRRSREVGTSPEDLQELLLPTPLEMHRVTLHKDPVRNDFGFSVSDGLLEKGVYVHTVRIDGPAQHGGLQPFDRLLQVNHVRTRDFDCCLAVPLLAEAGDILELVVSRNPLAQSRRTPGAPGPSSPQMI

| effect of a mutation on the interaction (grip2_rat Grip2) | effect of a mutation on the interaction (grip1_mouse Grip1) | Substance |
| --- | --- | --- |
| disrupting interaction | disrupting interaction | Chondroitin sulfate proteoglycan 4 (Mus musculus), Q8VHY0 V2327G |
| disrupting interaction | disrupting interaction | Chondroitin sulfate proteoglycan 4 (Mus musculus), Q8VHY0 W2326G |
| disrupting interaction | disrupting interaction | Chondroitin sulfate proteoglycan 4 (Mus musculus), Q8VHY0 Y2325G |
